Results: article PMC8269962 (Nature, 2021)

Molecular target: T1, B/Vic-I53_dn5 nanoparticle (Influenza B virus B/Brisbane/60/2008 …, strain)
T1 chain: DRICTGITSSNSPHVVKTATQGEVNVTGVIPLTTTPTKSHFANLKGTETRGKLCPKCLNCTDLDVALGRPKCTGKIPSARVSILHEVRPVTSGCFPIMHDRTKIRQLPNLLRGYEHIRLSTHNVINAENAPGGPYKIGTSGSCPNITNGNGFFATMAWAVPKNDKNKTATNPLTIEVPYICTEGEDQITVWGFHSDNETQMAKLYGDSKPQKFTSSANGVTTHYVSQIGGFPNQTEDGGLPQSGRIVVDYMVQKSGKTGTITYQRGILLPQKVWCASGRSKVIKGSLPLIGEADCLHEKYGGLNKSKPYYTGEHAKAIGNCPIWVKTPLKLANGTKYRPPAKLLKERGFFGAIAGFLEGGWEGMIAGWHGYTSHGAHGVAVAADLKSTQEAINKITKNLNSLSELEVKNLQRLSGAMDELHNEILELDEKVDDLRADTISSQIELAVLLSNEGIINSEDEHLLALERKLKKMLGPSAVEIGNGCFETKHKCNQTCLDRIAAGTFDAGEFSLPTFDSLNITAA
Experiment: ELISA

B1: CR8071 (antibody, V domains shown)
VH: QVQLVQSGAEVKKPGASVRVSCRASGYIFTESGITWVRQAPGQGLEWMGWISGYSGDTKYAQKLQGRVTMTKDTSTTTAYMELRSLRYDDTAVYYCARDVQYSGSYLGAYYFDYWSPGTLVTVSS
VL: QSVLTQPPSASGTPGQRVTISCSGSSSNIGTNYVYWYQQFPGTAPKLLIYRSYQRPSGVPDRFSGSKSGSSASLAISGLQSEDEADYYCATWDDSLDGWVFGGGTKLTVL
  binding result: binds
